One substance from patent US20260035456A1 can be followed below.

For this experiment, the target named is CRLR/RAMP3 (human).

Turning to “hADM(22-52) (from UniProt P35318) (peptide)”, the IC50 (read off the curve) was found to be 100 µg/mL.
